Values of other authors, collected in article PMC3786701.

Target: SNARE complex (Rattus norvegicus) (UniProt P32851)
Chain of UniProt P32851 (P32851 whole entry, chain 1 of 3): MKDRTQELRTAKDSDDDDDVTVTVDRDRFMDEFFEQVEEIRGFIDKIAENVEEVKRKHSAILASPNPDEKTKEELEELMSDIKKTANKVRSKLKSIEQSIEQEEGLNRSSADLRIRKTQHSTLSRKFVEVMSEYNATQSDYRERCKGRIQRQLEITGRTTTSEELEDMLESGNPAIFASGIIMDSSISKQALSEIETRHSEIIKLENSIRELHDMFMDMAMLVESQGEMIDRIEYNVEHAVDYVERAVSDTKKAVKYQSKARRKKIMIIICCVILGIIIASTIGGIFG
Chain of UniProt P32851 (B2RAU4 whole entry, chain 2 of 3, further chain): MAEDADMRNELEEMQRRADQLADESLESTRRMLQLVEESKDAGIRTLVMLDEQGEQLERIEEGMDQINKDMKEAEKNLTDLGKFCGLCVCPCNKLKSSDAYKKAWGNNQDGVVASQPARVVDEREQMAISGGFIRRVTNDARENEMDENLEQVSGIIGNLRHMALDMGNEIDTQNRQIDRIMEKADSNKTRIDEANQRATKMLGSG
Chain of UniProt P32851 (P63044 2-116, chain 3 of 3, further chain): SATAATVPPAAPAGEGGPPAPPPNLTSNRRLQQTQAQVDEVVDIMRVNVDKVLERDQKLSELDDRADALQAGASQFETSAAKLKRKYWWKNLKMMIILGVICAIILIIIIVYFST

synaptotagmin-1 C2AB (from UniProt P21707)
Kd: 1000 nM
